According to publication PMC8695382 (Nature, 2021):

T1: Dia2 (Saccharomyces cerevisiae, UniProt Q08496 1-732)
T1 construct: Dia2, F-box protein, S. cerevisiae; model built for F-box (211–247), LRRs (248–716) and C-terminal tail (717–732); N-terminal TPR domain not visible; Subunit of m1 as it stands in the cryo-EM samples; also called Dia2^LRR (its leucine-rich repeat domain); source: purified as part of SCF^Dia2
T1 sequence: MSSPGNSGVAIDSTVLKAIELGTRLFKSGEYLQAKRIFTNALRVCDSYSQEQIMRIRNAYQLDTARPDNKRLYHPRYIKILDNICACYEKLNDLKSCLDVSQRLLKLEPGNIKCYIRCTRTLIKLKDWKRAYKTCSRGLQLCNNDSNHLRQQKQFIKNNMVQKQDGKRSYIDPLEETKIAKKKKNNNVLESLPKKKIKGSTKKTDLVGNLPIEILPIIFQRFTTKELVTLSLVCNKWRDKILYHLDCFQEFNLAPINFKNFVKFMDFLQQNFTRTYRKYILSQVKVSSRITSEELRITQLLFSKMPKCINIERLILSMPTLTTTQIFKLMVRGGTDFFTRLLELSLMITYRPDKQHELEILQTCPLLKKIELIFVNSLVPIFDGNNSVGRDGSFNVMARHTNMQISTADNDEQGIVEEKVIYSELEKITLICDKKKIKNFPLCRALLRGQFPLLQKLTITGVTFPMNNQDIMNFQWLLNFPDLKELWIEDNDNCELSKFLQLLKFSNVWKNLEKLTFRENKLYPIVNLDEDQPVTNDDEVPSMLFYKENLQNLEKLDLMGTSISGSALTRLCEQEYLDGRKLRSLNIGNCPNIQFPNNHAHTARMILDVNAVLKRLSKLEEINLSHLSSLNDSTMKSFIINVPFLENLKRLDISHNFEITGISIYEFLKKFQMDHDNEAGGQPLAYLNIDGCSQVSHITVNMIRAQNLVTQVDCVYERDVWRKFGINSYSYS

B1: Mcm5 (natural protein, Saccharomyces cerevisiae)
chain: MSFDRPEIYSAPVLQGESPNDDDNTEIIKSFKNFILEFRLDSQFIYRDQLRNNILVKNYSLTVNMEHLIGYNEDIYKKLSDEPSDIIPLFETAITQVAKRISILSRAQSANNNDKDPENTSMDTDSLLLNSLPTFQLILNSNANQIPLRDLDSEHVSKIVRLSGIIISTSVLSSRATYLSIMCRNCRHTTSITINNFNSITGNTVSLPRSCLSTIESESSMANESNIGDESTKKNCGPDPYIIIHESSKFIDQQFLKLQEIPELVPVGEMPRNLTMTCDRYLTNKVIPGTRVTIVGIYSIYNSKNGAGSGRSGGGNGGSGVAIRTPYIKILGIQSDVETSSIWNSVTMFTEEEEEEFLQLSRNPKLYEILTNSIAPSIFGNEDIKKAIVCLLMGGSKKILPDGMRLRGDINVLLLGDPGTAKSQLLKFVEKVSPIAVYTSGKGSSAAGLTASVQRDPMTREFYLEGGAMVLADGGVVCIDEFDKMRDEDRVAIHEAMEQQTISIAKAGITTVLNSRTSVLAAANPIYGRYDDLKSPGDNIDFQTTILSRFDMIFIVKDDHNEERDISIANHVINIHTGNANAMQNQQEENGSEISIEKMKRYITYCRLKCAPRLSPQAAEKLSSNFVTIRKQLLINELESTERSSIPITIRQLEAIIRITESLAKLELSPIAQERHVDEAIRLFQASTMDAASQDPIGGLNQASGTSLSEIRRFEQELKRRLPIGWSTSYQTLRREFVDTHRFSQLALDKALYALEKHETIQLRHQGQNIYRSGV
notes: Mcm5, S. cerevisiae; Subunit of m2; source: purified as part of CMG
B2: Mcm7 (natural protein, Saccharomyces cerevisiae)
chain: MSAALPSIQLPVDYNNLFNEITDFLVTFKQDTLSSDATRNENEDENLDAENIEQHLLEKGPKYMAMLQKVANRELNSVIIDLDDILQYQNEKFLQGTQADDLVSAIQQNANHFTELFCRAIDNNMPLPTKEIDYKDDVLDVILNQRRLRNERMLSDRTNEIRSENLMDTTMDPPSSMNDALREVVEDETELFPPNLTRRYFLYFKPLSQNCARRYRKKAISSKPLSVRQIKGDFLGQLITVRGIITRVSDVKPAVEVIAYTCDQCGYEVFQEVNSRTFTPLSECTSEECSQNQTKGQLFMSTRASKFSAFQECKIQELSQQVPVGHIPRSLNIHVNGTLVRSLSPGDIVDVTGIFLPAPYTGFKALKAGLLTETYLEAQFVRQHKKKFASFSLTSDVEERVMELITSGDVYNRLAKSIAPEIYGNLDVKKALLLLLVGGVDKRVGDGMKIRGDINVCLMGDPGVAKSQLLKAICKISPRGVYTTGKGSSGVGLTAAVMKDPVTDEMILEGGALVLADNGICCIDEFDKMDESDRTAIHEVMEQQTISISKAGINTTLNARTSILAAANPLYGRYNPRLSPLDNINLPAALLSRFDILFLMLDIPSRDDDEKLAEHVTYVHMHNKQPDLDFTPVEPSKMREYIAYAKTKRPVMSEAVNDYVVQAYIRLRQDSKREMDSKFSFGQATPRTLLGIIRLSQALAKLRLADMVDIDDVEEALRLVRVSKESLYQETNKSKEDESPTTKIFTIIKKMLQETGKNTLSYENIVKTVRLRGFTMLQLSNCIQEYSYLNVWHLINEGNTLKFVDDGTMDTDQEDSLVSTPKLAPQTTASANVSAQDSDIDLQDA
notes: Mcm7, S. cerevisiae; Subunit of m2; source: purified as part of CMG
B3: Dpb2 (natural protein, Saccharomyces cerevisiae)
chain: MFGSGNVLPVKIQPPLLRPLAYRVLSRKYGLSIKSDGLSALAEFVGTNIGANWRQGPATIKFLEQFAAVWKQQERGLFIDQSGVKEVIQEMKEREKVEWSHEHPIQHEENILGRTDDDENNSDDEMPIAADSSLQNVSLSSPMRQPTERDEYKQPFKPESSKALDWRDYFKVINASQQQRFSYNPHKMQFIFVPNKKQNGLGGIAGFLPDIEDKVQMFLTRYYLTNDRVMRNENFQNSDMFNPLSSMVSLQNELSNTNRQQQSSSMSITPIKNLLGRDAQNFLLLGLLNKNFKGNWSLEDPSGSVEIDISQTIPTQGHYYVPGCMVLVEGIYYSVGNKFHVTSMTLPPGERREITLETIGNLDLLGIHGISNNNFIARLDKDLKIRLHLLEKELTDHKFVILGANLFLDDLKIMTALSKILQKLNDDPPTLLIWQGSFTSVPVFASMSSRNISSSTQFKNNFDALATLLSRFDNLTENTTMIFIPGPNDLWGSMVSLGASGTLPQDPIPSAFTKKINKVCKNVVWSSNPTRIAYLSQEIVIFRDDLSGRFKRHRLEFPFNESEDVYTENDNMMSKDTDIVPIDELVKEPDQLPQKVQETRKLVKTILDQGHLSPFLDSLRPISWDLDHTLTLCPIPSTMVLCDTTSAQFDLTYNGCKVINPGSFIHNRRARYMEYVPSSKKTIQEEIYI
notes: Dpb2, subunit of DNA polymerase ε, S. cerevisiae; Subunit of m15; source: purified as part of Pol-ε
B4: Mcm2 (natural protein, Saccharomyces cerevisiae)
chain: MSDNRRRRREEDDSDSENELPPSSPQQHFRGGMNPVSSPIGSPDMINPEGDDNEVDDVPDIDEVEEQMNEVDLMDDNMYEDYAADHNRDRYDPDQVDDREQQELSLSERRRIDAQLNERDRLLRNVAYIDDEDEEQEGAAQLDEMGLPVQRRRRRRQYEDLENSDDDLLSDMDIDPLREELTLESLSNVKANSYSEWITQPNVSRTIARELKSFLLEYTDETGRSVYGARIRTLGEMNSESLEVNYRHLAESKAILALFLAKCPEEMLKIFDLVAMEATELHYPDYARIHSEIHVRISDFPTIYSLRELRESNLSSLVRVTGVVTRRTGVFPQLKYVKFNCLKCGSILGPFFQDSNEEIRISFCTNCKSKGPFRVNGEKTVYRNYQRVTLQEAPGTVPPGRLPRHREVILLADLVDVSKPGEEVEVTGIYKNNYDGNLNAKNGFPVFATIIEANSIKRREGNTANEGEEGLDVFSWTEEEEREFRKISRDRGIIDKIISSMAPSIYGHRDIKTAVACSLFGGVPKNVNGKHSIRGDINVLLLGDPGTAKSQILKYVEKTAHRAVFATGQGASAVGLTASVRKDPITKEWTLEGGALVLADKGVCLIDEFDKMNDQDRTSIHEAMEQQSISISKAGIVTTLQARCSIIAAANPNGGRYNSTLPLAQNVSLTEPILSRFDILCVVRDLVDEEADERLATFVVDSHVRSHPENDEDREGEELKNNGESAIEQGEDEINEQLNARQRRLQRQRKKEEEISPIPQELLMKYIHYARTKIYPKLHQMDMDKVSRVYADLRRESISTGSFPITVRHLESILRIAESFAKMRLSEFVSSYDLDRAIKVVVDSFVDAQKVSVRRQLRRSFAIYTLGH
notes: Mcm2, S. cerevisiae; Subunit of m2; source: purified as part of CMG
B5: Csm3 (natural protein, Saccharomyces cerevisiae)
chain: MDQDFDSLLLGFNDSDSVQKDPTVPNGLDGSVVDPTIADPTAITARKRRPQVKLTAEKLLSDKGLPYVLKNAHKRIRISSKKNSYDNLSNIIQFYQLWAHELFPKAKFKDFMKICQTVGKTDPVLREYRVSLFRDEMGMSFDVGTRETGQDLERQSPMVEEHVTSAEERPIVADSFAQDKRNVNNVDYDNDEDDDIYHLSYRNRRGRVLDERGNNETVLNNVVPPKEDLDALLKTFRVQGPVGLEENEKKLLLGWLDAHRKMEKGSMTEEDVQLIQSLEEWEMNDIEGQHTHYDLLPGGDEFGVDQDELDAMKEMGF
notes: Csm3, S. cerevisiae; Subunit of m12; source: purified as part of Tof1–Csm3

How the values were obtained:
Experiment in all cases: cryo-EM structure; yeast replisome–SCF^Dia2 complexes after gradient fixation; particles translocated onto dsDNA (conformations I and II)
Settings in all cases: both partners purified
Pol2 = target: T2, Pol2 (Saccharomyces cerevisiae, UniProt P21951 1-2222)
T2 construct: Pol2, catalytic subunit of DNA polymerase ε, S. cerevisiae; catalytic domain ends at residue 1186, non-catalytic domain begins at residue 1321; Subunit of m15; source: purified as part of Pol-ε
T2 sequence (P21951 whole entry, the tested form may be a part): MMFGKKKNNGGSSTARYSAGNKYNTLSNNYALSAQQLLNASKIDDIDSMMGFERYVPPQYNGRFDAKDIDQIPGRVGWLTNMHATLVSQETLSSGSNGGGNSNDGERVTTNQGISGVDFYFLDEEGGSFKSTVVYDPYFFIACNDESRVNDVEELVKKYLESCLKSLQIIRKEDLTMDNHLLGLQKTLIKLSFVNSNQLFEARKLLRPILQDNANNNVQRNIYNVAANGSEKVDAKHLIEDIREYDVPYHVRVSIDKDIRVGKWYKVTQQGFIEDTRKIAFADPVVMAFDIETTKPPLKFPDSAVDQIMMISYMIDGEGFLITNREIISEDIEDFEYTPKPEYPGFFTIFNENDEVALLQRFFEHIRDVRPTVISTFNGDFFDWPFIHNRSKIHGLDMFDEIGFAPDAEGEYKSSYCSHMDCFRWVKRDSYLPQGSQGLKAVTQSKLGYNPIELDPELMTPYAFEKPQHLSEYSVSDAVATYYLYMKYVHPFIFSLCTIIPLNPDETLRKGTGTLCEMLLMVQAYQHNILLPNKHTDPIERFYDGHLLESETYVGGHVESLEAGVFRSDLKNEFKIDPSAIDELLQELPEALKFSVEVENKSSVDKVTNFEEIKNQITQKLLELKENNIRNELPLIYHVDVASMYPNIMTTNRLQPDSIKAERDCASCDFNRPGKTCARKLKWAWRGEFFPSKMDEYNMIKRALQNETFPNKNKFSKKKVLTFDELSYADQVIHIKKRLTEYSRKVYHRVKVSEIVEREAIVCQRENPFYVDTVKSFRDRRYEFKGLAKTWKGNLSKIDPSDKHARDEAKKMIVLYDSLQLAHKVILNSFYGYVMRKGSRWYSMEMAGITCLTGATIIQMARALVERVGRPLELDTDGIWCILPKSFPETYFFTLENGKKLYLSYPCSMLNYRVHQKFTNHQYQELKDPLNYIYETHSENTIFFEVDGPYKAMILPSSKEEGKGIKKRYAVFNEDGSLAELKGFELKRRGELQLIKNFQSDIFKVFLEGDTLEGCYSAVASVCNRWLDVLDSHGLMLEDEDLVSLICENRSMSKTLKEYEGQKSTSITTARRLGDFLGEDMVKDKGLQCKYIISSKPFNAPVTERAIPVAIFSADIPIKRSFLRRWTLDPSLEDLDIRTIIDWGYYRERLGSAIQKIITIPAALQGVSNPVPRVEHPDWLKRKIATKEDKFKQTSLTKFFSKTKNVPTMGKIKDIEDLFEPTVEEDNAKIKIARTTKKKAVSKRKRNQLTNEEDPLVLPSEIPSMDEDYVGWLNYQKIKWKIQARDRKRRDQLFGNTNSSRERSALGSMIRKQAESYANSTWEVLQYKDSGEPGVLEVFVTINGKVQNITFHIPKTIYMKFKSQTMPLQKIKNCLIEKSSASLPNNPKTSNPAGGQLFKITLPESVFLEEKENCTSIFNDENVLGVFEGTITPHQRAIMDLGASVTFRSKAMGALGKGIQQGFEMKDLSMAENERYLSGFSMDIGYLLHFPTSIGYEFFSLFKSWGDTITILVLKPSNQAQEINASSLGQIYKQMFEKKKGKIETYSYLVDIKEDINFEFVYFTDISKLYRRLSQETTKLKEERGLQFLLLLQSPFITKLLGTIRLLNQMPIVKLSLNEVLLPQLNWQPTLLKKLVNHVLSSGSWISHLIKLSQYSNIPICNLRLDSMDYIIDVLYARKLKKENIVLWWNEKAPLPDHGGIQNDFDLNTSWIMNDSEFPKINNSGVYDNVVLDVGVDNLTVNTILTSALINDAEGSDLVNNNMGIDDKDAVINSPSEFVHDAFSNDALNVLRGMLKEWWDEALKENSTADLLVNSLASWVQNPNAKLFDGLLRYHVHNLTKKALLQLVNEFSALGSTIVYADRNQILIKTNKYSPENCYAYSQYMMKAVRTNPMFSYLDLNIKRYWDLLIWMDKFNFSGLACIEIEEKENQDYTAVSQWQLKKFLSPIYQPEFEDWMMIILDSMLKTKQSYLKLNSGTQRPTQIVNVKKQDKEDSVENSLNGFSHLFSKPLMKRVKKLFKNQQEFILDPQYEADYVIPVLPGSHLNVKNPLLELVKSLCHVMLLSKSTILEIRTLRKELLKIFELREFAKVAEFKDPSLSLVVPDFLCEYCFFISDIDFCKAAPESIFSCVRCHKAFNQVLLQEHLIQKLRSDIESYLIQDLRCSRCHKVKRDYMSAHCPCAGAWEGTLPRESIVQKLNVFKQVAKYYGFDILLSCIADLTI

Mcm3 = target: T3, Mcm3 (Saccharomyces cerevisiae, UniProt P24279 1-971)
T3 construct: Mcm3, S. cerevisiae; Subunit of m2; source: purified as part of CMG
T3 sequence (P24279 whole entry): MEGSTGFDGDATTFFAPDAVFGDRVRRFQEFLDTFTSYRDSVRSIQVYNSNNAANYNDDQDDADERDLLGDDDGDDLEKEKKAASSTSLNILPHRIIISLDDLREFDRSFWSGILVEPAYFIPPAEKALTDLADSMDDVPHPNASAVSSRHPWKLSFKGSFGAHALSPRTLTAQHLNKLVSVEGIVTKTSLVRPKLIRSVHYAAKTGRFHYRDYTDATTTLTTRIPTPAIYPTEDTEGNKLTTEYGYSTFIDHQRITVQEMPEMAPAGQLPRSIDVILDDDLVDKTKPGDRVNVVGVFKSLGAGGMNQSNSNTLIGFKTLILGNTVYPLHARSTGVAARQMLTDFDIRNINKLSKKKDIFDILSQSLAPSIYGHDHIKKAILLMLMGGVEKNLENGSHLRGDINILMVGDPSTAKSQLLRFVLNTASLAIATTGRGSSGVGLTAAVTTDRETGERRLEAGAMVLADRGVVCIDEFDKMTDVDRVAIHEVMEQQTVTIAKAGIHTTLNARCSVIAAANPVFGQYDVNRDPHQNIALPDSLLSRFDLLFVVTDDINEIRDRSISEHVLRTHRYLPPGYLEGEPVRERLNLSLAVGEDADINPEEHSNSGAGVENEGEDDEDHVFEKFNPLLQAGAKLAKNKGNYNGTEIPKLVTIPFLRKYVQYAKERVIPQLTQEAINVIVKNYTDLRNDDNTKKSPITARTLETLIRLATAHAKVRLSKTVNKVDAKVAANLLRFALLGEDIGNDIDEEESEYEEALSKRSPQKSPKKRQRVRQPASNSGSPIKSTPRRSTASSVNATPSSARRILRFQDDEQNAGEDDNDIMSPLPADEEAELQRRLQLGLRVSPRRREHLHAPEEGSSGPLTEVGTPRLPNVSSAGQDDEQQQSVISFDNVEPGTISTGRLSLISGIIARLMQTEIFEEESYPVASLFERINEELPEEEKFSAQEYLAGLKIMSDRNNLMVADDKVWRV

Mcm5 = target: B1
Dia2 = target: T1, Dia2

Binder: B1
- binding result (Pol2): binds

Binder: B2
- binding result (Mcm3): binds

Binder: B3
- binding result (Mcm5): binds

Binder: B4
- binding result (Pol2): binds

Binder: B5
- binding result (Dia2): binds
